# From patent US20260183437A1, “VHH ANTIBODY CONJUGATES WITH HETEROARYL CHELATORS” (ABDERA THERAPEUTICS INC., priority 2022, published 2026)
# Key:
# human insulin = biological target: T1, human insulin (Homo sapiens, UniProt P01308); experiment: Polyreactivity ELISA; type: binding; settings: 10 μg/mL VHH-Fc; signal normalized to non-coated well
# T1 construct: 5 μg/mL of human insulin (SigmaAlrich, Cat #: I9278); purchased SigmaAlrich I9278
# Protocol: Polyreactivity of VHH-Fcs against negatively charged biomolecules was determined by ELISA (As in Avery et al., “Establishing in vitro in vivo correlations to screen monoclonal antibodies for physicochemical properties related to favorable human pharmacokinetics.” MAbs. 2018 February/March; 10(2):244-255). Briefly, ELISA plate was coated with 5 μg/mL of human insulin (SigmaAlrich, Cat #: I9278) and 10 μg/mL of double stranded DNA (SigmaAlrich, Cat #: D1626-250MG) overnight. The plate was blocked with ELISA buffer (PBS, 1 mM EDTA, 0.05% Tween-20, pH 7.4). 10 μg/mL of test VHH-Fcs was loaded onto the plates in quadruplicates and incubated for 2 hours. Goat anti-human Fc(0.01 ug/ml) conjugated with HRP was then added and the plate incubated for 1 hour. The signal was developed with TMB and A450 absorbance was measured with Synergy Neo2 plate reader. The signal was normalized with the signal of non-coated well for each antibody tested.
# [1] = Pharmacokinetics of VHH-Fc variants in Tg32 (humanized FcRn) mice; type: in vivo; settings: IV 3 mg/kg, HER2 VHH-Fc study (Table 6)
# Protocol: Twenty eight (28) 8 week old male B6. Cg-Fcgrt^tm1Der Tg(FCGRT)32Dcr/DcrJ (Tg32 hom, JAX stock #014565) mice were distributed into 7 groups with 4 mice per group as outlined in the table. […] (See, e.g., Avery L B et al. “Utility of a human FcRn transgenic mouse model in drug discovery for early assessment and prediction of human pharmacokinetics of monoclonal antibodies.” MAbs. 2016 August-September; 8(6):1064-78). On Day 0, body weights were measured and test articles were IV administered to all mice at 3 mg/kg and 5 mL/kg. 25 μL blood samples were collected from each mouse at time intervals. The blood samples were collected into 1 μL K3EDTA, processed to plasma, diluted 1/10 in 50% glycerol in PBS, transferred into specialized 96 well storage plates, and stored at −20° C. All plasma samples were assessed via a hIgG ELISA chosen for its high sensitivity for all seven test articles.
# hFcRn = biological target: T2, hFcRn (Homo sapiens, UniProt P55899); experiment: FcRn affinity by biolayer interferometry (Octet RED96e), pH 6.0; settings: pH 6.0, 2:1 binding model
# T2 construct: purchased Sino Biological CT071-H27H-B
# T2 sequence (P55899 24-297 limits assumed): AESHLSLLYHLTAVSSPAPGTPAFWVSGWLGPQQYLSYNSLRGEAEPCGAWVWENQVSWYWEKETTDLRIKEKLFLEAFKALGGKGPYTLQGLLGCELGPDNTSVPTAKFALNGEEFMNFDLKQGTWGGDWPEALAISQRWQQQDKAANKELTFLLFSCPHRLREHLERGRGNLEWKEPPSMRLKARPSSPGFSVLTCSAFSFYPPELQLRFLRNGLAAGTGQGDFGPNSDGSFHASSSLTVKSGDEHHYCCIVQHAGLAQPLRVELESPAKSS
# T2 sequence (P61769 21-119 partner): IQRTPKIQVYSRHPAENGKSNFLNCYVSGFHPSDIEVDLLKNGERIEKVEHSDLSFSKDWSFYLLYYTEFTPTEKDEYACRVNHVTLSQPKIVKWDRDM
# Protocol: FcRn affinity of VHH-Fc can generally be used to predict the half-life of antibody serum clearance. (See, e.g., Datta-Mannan A et al. “FcRn affinity-pharmacokinetic relationship of five human IgG4 antibodies engineered for improved in vitro FcRn binding properties in cynomolgus monkeys.” Drug Metab Dispos. 2012 August; 40(8):1545-55). Briefly, 10 nM of biotinylated hFcRn (Sino Biological, Cat #: CT071-H27H-B) was captured with the SA biosensor using Octet RED96e (Fortebio). The hFcRN coated biosensor was dipped into the sample solutions in sodium phosphate buffer (100 mM Na2HPO4, 150 mM NaCl w/ 0.05% Tween-20, pH 6.0) with serial concentrations of tested antibodies and the association measured. The dissociation was measured by dipping the biosensors into sodium phosphate buffer without antibody. The KD values were determined using Octet Data Analysis HT 11.0 software. 2:1 (Heterogeneous Ligand) binding model was used in analysis. […] Changes in FcRn affinity were consistent across targets. Constructs with Fc Effector mutation only have no impact on FcRn affinity.
# BT-474 tumor = experiment: Biodistribution of ^111In radiolabeled VHH-Fcs, SPECT/CT imaging; type: in vivo, mice; settings: labeled with ^111In, compared with H101
# Protocol: The objective of this study was to observe the biodistribution of ^111In radiolabeled SPECT/CT imaging across select test articles in BT-474 tumor (breast cancer cells) bearing nude mice. The following articles were tested at a CAR of about 4: ^111In-H101-4-1, ^111In-H1014-2, ^111In-H105-4-2, ^111In-H107-4-2, and ^111In-H108-4-2. FIGS. 9A, 9B, and 9C show tissue accumulation over time for ^111In-H101-SL, ^111In-H101-4-2, and ^111In-H108-4-2. […] FIGS. 10A, 10B, and 10C show tumor:tissue ratios. In each case, the tumor:tissue ratios were greater than 5, indicating increased tumor accumulation and better profiles used for determining safety (e.g., as compared lower tumor:tissue ratios). […] In each case, the VHH-Fc variants show advantageous targeting of tumor tissue.
# FcγRIIb/c = biological target: T3, FcγRIIb/c (Homo sapiens, UniProt P31994); experiment: FcγR affinity by biolayer interferometry (Octet Red96e); type: binding
# T3 construct: purchased Acro Biosystems
# T3 sequence (P31994 43-310): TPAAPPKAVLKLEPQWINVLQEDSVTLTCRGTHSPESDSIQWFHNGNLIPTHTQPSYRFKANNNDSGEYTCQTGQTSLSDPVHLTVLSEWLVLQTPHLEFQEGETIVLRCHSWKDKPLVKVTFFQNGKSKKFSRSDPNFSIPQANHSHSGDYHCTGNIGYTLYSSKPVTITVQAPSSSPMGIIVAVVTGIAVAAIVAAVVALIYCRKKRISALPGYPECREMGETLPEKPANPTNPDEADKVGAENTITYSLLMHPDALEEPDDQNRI
# Protocol: (§1) VHH-Fcs were also tested for affinity to FcγRs by biolayer interferometry using the Octet Red96e platform. Each cycle is performed with orbital shake speed of 1,000 rpm. Streptavidin (SA) biosensors (Sartorius 18-5019) were rehydrated for 10 mins using kinetics buffer (PBS+0.1% BSA+0.02% Tween-20). Biotinylated-FcγRs (Acro Biosystems) were then loaded for 40-100 s onto SA biosensors at concentrations ranging between 1-5 μg/mL diluted in PBS. VHH-Fcs were serially diluted 1:2 in sample buffer (PBS+0.02% Tween-20) with starting concentrations ranging between 5000 nM to 37.5 nM. Loaded biosensors were then associated with VHH-Fcs for 60-120 s. VHH-Fc dissociation was measured for 30-900 s in sample buffer. Bound VHH-Fcs were then removed using 3 cycles of 5 s regeneration buffer (150 mM NaCl, 300 mM Sodium Citrate) and 5 s sample buffer. The data was analyzed either using a globally-fitted 1:1 Langmuir binding model (FcγRI) or steady state analysis (Octet software version HT v11.1).
# FcγRIIa (R167) = biological target: T4, FcγRIIa (R167) (Homo sapiens, UniProt P12318, H167R); experiment: as above; type: binding
# T4 construct: purchased Acro Biosystems
# T4 sequence (P12318 36-218 H167R limits assumed): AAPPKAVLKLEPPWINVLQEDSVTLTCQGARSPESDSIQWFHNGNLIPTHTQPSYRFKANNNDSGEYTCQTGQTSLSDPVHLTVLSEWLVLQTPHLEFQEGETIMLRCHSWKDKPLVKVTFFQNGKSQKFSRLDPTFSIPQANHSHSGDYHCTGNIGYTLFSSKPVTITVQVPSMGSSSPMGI
# Protocol: as §1
# FcγRI = biological target: T5, FcγRI (Homo sapiens, UniProt P12314); experiment: as above; type: binding
# T5 construct: purchased Acro Biosystems
# T5 sequence (P12314 16-374): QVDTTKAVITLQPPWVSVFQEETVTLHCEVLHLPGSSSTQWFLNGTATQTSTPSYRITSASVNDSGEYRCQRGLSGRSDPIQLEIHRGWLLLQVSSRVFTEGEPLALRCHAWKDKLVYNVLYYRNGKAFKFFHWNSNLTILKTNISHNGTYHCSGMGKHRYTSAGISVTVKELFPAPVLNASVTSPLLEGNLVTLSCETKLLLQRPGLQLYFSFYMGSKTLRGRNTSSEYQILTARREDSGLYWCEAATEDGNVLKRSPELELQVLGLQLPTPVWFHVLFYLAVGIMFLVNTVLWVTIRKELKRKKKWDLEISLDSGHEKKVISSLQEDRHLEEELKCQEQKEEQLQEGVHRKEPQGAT
# Protocol: as §1
# T1 sequence (P01308 25-54 limits assumed): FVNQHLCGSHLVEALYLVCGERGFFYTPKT
# T1 sequence (P01308 90-110 limits assumed): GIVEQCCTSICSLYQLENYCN
Substance,"Polyreactivity Assay Score, Insulin (human insulin)",Clearance [1],Cmax [1],Terminal Half-Life [1],Kd (hFcRn),Whole body clearance (BT-474 tumor),KD (nM) to FcRn (hFcRn),FcγRIIb/c nM KD (FcγRIIb/c),Kd (FcγRIIa (R167)),Kd (FcγRI)
"H106: anti-HER2 VHH-Fc, FcRn mutant S254A [Compound H106]",1.321,19.8 mL/day,53.5 µg/mL,170 h,13 nM,–,–,–,–,–
"H105: anti-HER2 VHH-Fc, FcRn mutant I253A [Compound H105]",1.207,152.1 mL/day,63.9 µg/mL,26.9 h,–,increased clearance,Weak,–,–,–
"H107: anti-HER2 VHH-Fc, FcRn mutant H310A [Compound H107]",1.306,304.4 mL/day,62.4 µg/mL,9.84 h,–,increased clearance,No binding,–,–,–
"H108: anti-HER2 VHH-Fc, FcRn mutant H435Q [Compound H108]",1.420,117.5 mL/day,46.6 µg/mL,37.7 h,–,increased clearance,Weak,–,–,–
"H137: anti-HER2 VHH-Fc, H435Q, Fc effector mutant AEASS [Compound H137]",–,–,–,–,–,–,Weak,weak,1200 nM,–
"H133: anti-HER2 VHH-Fc, FcRn wt, Fc effector mutant AEASS [Compound H133]",–,–,–,–,2.1 nM,–,–,weak,2300 nM,1 nM
"H135: anti-HER2 VHH-Fc, H310A, Fc effector mutant AEASS [Compound H135]",–,–,–,–,–,–,No binding,weak,1200 nM,–
"H109: anti-HER2 VHH-Fc, FcRn mutant Y463A (as printed) [Compound H109]",1.244,18.2 mL/day,52.2 µg/mL,166 h,13 nM,–,–,–,–,–
